Laboratory results published in the FLAb antibody collection.
Changes are numbered by the printed parent chain. Values joined by “and” are separate entries in the source; they are usually repeats but may differ in a detail not shown here. Identical values can stand only once.

B1: unnamed (protein)
chain 1: EVQLVQSGPGLVQPGGSVRISCAASGYTFTNYGMNWVKQAPGKGLEWMGWINTYTGESTYADSFKGRFTFSLDTSASAAYLQINSLRAEDTAVYYCARFAIKGDYWGQGTLLTVSS
chain 2: DIQMTQSPSSLSASVGDRVTITCRSTKSLLHSNGITYLYWYQQKPGKAPKLLIYQMSNLASGVPSRFSSSGSGTDFTLTISSLQPEDFATYYCAQNLEIPRTFGQGTKVELK
B2: unnamed (protein)
chain 1: EVQLVESGGGLVQPGGSLRLSCAASGFNFNDYFMNWVRQAPGKGLEWVAQMRNKNYQYGTYYAESLEGRFTISRDDSKNSLYLQMNSLKTEDTAVYYCARESYYGFTSYWGQGTLVTVSS
chain 2: DIQMTQSPSSLSASVGDRVTITCQASQDIGISLSWYQQKPGKAPKLLIYNANNLADGVPSRFSGSGSGTDFTLTISSLQPEDFATYYCLQHNSAPYTFGQGTKLEIK
B3: unnamed (protein)
chain 1: QVQLVQSGVEVKKPGASVKVSCKASGYTFTNYYMYWVRQAPGQGLEWMGGINPSNGGTNFNEKFKNRVTLTTDSSTTTAYMELKSLQFDDTAVYYCARRDYRFDMGFDYWGQGTTVTVSS
chain 2: EIVLTQSPATLSLSPGERATLSCRASKGVSTSGYSYLHWYQQKPGQAPRLLIYLASYLESGVPARFSGSGSGTDFTLTISSLEPEDFAVYYCQHSRDLPLTFGGGTKVEIK
B4: unnamed (protein)
chain 1: QVQLVQSGAEVKKPGASVKVSCKASGYTFTSYWMHWVRQAPGQGLEWIGNINPSNGGTNYNEKFKSKATMTRDTSTSTAYMELSSLRSEDTAVYYCELMQGYWGQGTLVTVSS
chain 2: DIVMTQSPLSNPVTLGQPVSISCRSSKSLLYKDGKTYLNWFLQRPGQSPQLLIYLMSTRASGVPDRFSGGGSGTDFTLKISRVEAEDVGVYYCQQLVEYPLTFGQGTKLEIK
B5: unnamed (protein)
chain 1: EVKLVESGGGLVQPGGSLRLSCATSGFTFTDYYMNWVRQPPGKALEWLGFIGNKANGYTTEYSASVKGRFTISRDKSQSILYLQMNTLRAEDSATYYCTRDRGLRFYFDYWGQGTTLTVSS
chain 2: QTVLSQSPAILSASPGEKVTMTCRASSSVTYIHWYQQKPGSSPKSWIYATSNLASGVPARFSGSGSGTSYSLTISRVEAEDAATYYCQHWSSKPPTFGGGTKLEIK
B6: unnamed (protein)
chain 1: EVQLVESGGGLVQPGGSLRLSCAASGYTFTSYNMHWVRQAPGKGLEWVGAIYPGNGDTSYNQKFKGRFTISVDKSKNTLYLQMNSLRAEDTAVYYCARVVYYSNSYWYFDVWGQGTLVTVSS
chain 2: DIQMTQSPSSLSASVGDRVTITCRASSSVSYMHWYQQKPGKAPKPLIYAPSNLASGVPSRFSGSGSGTDFTLTISSLQPEDFATYYCQQWSFNPPTFGQGTKVEIK
B7: unnamed (protein)
chain 1: EVQLVQSGAEVKKPGESLKISCKGSGRTFTSYNMHWVRQMPGKGLEWMGAIYPLTGDTSYNQKSKLQVTISADKSISTAYLQWSSLKASDTAMYYCARSTYVGGDWQFDVWGKGTTVTVSS
chain 2: EIVLTQSPGTLSLSPGERATLSCRASSSVPYIHWYQQKPGQAPRLLIYATSALASGIPDRFSGSGSGTDFTLTISRLEPEDFAVYYCQQWLSNPPTFGQGTKLEIK
B8: unnamed (protein)
chain 1: QVQLQESGPGLVRPSQTLSLTCTASGYTFTDYVIHWVKQPPGRGLEWIGYINPYDDDTTYNQKFKGRVTMLVDTSSNTAYLRLSSVTAEDTAVYYCARRGNSYDGYFDYSMDYWGSGTPVTVSS
chain 2: DIQMTQSPSSLSASVGDRVTITCRASQNVGTAVAWLQQTPGKAPKLLIYSASNRYTGVPSRFSGSGSGTDYTFTISSLQPEDIATYYCQQYTNYPMYTFGQGTKVQIK
B9: unnamed (protein)
chain 1: EVQLVESGGGLVQPGGSLRLSCAASGYTFTSYWLHWVRQAPGKGLEWVGMIDPSNSDTRFNPNFKDRFTISADTSKNTAYLQMNSLRAEDTAVYYCATYRSYVTPLDYWGQGTLVTVSS
chain 2: DIQMTQSPSSLSASVGDRVTITCKSSQSLLYTSSQKNYLAWYQQKPGKAPKLLIYWASTRESGVPSRFSGSGSGTDFTLTISSLQPEDFATYYCQQYYAYPWTFGQGTKVEIK
B10: unnamed (protein)
chain 1: QVQLVQSGAEVKKPGSSVKVSCKASGYAFSYSWINWVRQAPGQGLEWMGRIFPGDGDTDYNGKFKGRVTITADKSTSTAYMELSSLRSEDTAVYYCARNVFDGYWLVYWGQGTLVTVSS
chain 2: DIVMTQTPLSLPVTPGEPASISCRSSKSLLHSNGITYLYWYLQKPGQSPQLLIYQMSNLVSGVPDRFSGSGSGTDFTLKISRVEAEDVGVYYCAQNLELPYTFGGGTKVEIK
B11: unnamed (protein)
chain 1: EVQLVESGGGLVQPGGSMRLSCVASGFPFSNYWMNWVRQAPGKGLEWVGEIRLKSNNYTTHYAESVKGRFTISRDDSKNSLYLQMNSLKTEDTAVYYCTRHYYFDYWGQGTLVTVSS
chain 2: B10 chain 2 with T7S, L11N, L38F, Y39F, V60A, K79R, Y101P, G105Q
B12: unnamed (protein)
chain 1: EGQLVQSGGGLVHPGGSLRLSCAGSGFTFSSYGMHWVRQAPGKGLEWVSGIGTGGGTYSTDSVKGRFTISRDNAKNSLYLQMNSLRAEDMAVYYCARGDYYGSGSFFDCWGQGTLVTVSS
chain 2: DIQMTQSPSSLSASVGDRVTITCRASQGISSWLAWYQQKPEKAPKSLIYAASSLQSGVPSRFSGSGSGTDFTLTISSLQPEDFATYYCQQYNSYPPTFGQGTKLEIK
B13: unnamed (protein)
chain 1: EVQLVESGGGLVQPGGSLRLSCAASGYTFIDYYMNWVRQAPGKGLEWVGDINLDNSGTHYNQKFKGRFTISRDKSKNTAYLQMNSLRAEDTAVYYCAREGVYHDYDDYAMDYWGQGTLVTVSS
chain 2: DIQMTQSPSSLSASVGDRVTITCRTSQSLVHINAITYLHWYQQKPGKAPKLLIYRVSNRFSGVPSRFSGSGSGTDFTLTISSLQPEDFATYYCGQSTHVPLTFGQGTKVEIK
B14: unnamed (protein)
chain 1: QVQLQESGPGLVKPSETLSLTCTVSGGSVSSGDYYWTWIRQSPGKGLEWIGHIYYSGNTNYNPSLKSRLTISIDTSKTQFSLKLSSVTAADTAIYYCVRDRVTGAFDIWGQGTMVTVSS
chain 2: DIQMTQSPSSLSASVGDRVTITCQASQDISNYLNWYQQKPGKAPKLLIYDASNLETGVPSRFSGSGSGTDFTFTISSLQPEDIATYFCQHFDHLPLAFGGGTKVEIK
B15: unnamed (protein)
chain 1: QVTLRESGPALVKPTQTLTLTCTFSGFSLSTSGMSVGWIRQPPGKALEWLADIWWDDKKDYNPSLKSRLTISKDTSKNQVVLKVTNMDPADTATYYCARSMITNWYFDVWGAGTTVTVSS
chain 2: DIQMTQSPSTLSASVGDRVTITCKCQLSVGYMHWYQQKPGKAPKLLIYDTSKLASGVPSRFSGSGSGTEFTLTISSLQPDDFATYYCFQGSGYPFTFGGGTKLEIK
B16: unnamed (protein)
chain 1: EVQLVESGGGLVQPGRSLRLSCAASGFTFNDYAMHWVRQAPGKGLEWVSTISWNSGSIGYADSVKGRFTISRDNAKKSLYLQMNSLRAEDTALYYCAKDIQYGNYYYGMDVWGQGTTVTVSS
chain 2: EIVLTQSPATLSLSPGERATLSCRASQSVSSYLAWYQQKPGQAPRLLIYDASNRATGIPARFSGSGSGTDFTLTISSLEPEDFAVYYCQQRSNWPITFGQGTRLEIK
B17: unnamed (protein)
chain 1: QLQLQESGPGLVKPSETLSLTCTVSGGSINSSSYYWGWLRQSPGKGLEWIGSFFYTGSTYYNPSLRSRLTISVDTSKNQFSLMLSSVTAADTAVYYCARQSTYYYGSGNYYGWFDRWDQGTLVTVSS
chain 2: B16 chain 2 with I96P, T97A, R103K, L104V
B18: unnamed (protein)
chain 1: EVQLVESGGGLVQPGGSLRLSCAASGYTFTSYVIHWVRQAPGKGLEWVGYNNPYNAGTNYNEKFKGRFTISSDKSKNTAYLQMNSLRAEDTAVYYCSRPTMLPWFAYWGQGTLVTVSS
chain 2: DIQMTQSPSSLSASVGDRVTITCRASQAVSSAVAWYQQKPGKAPKLLIYSASHRYTGVPSRFSGSGSGTDFTLTISSLQPEDFATYYCQESYSTPWTFGQGTKVEIK
B19: unnamed (protein)
chain 1: EVQLVQSGAEVKKPGESLKISCKGSGYSFTGYNMNWVRQMPGKGLEWMGNIDPYYGGTTYNRKFKGQVTISADKSISTAYLQWSSLKASDTAMYYCARSVGPFDSWGQGTLVTVSS
chain 2: EIVLTQSPATLSLSPGERATLSCRASENVYSYLAWYQQKPGQAPRLLIYFAKTLAEGIPARFSGSGSGTDFTLTISSLEPEDFAVYYCQHHSDNPWTFGQGTKVEIK

Assay: patients with anti-drug antibodies; higher = more immunogenic

Protein | patients with anti-drug antibodies
B1 | 40%
B2 | 9.8%
B3 | 1.7%
B4 | 2.5%
B5 | 0.5%
B6 | 1%
B7 | 1%
B8 | 4.5%
B9 | 11.9%
B10 | 6% and 6.6%
B11 | 25% and 9.5%
B12 | 0%
B13 | 4.7%
B14 | 2.8%
B15 | 1.1%
B16 | 0%
B17 | 3.5%
B18 | 4.7%
B19 | 5%
